Experimental data taken from patent US20250195679A1 (SHANGHAI HUAOTA BIOPHARMACEUTICAL, published 2025).

B1: 900698 antibody (antibody, V domains shown)
VH: QVQLVESGGGLVKPGGSLRLSCAASGFTFSKYAMSWIRQAPGKGLEWVAEISSGGGYINYADSVKGRFTISRDNAKNSLYLQMNSLRAEDTAVYYCARAIYYYGSSYNYYAMDYWGQGTTVTVSS
VL: DIQMTQSPSSLSASVGDRVTITCRASQDVGTAEAWYQQKPGKAPKLLIYWASTRHTGVPSRFSGSGSGTDFTLTISSLQPEDFATYYCQQYSSYPLTFGQGTKLEIK
notes: embodiments say they may derive from human IgG1 and human Ig kappa; It was detected with anti-human Fc and captured on protein A; also called 900698 naked antibody; naked antibody 900698
B2: CD73 antibody-Mc-VC-PAB-DMEDA-PEG-SN38 (antibody, V domains shown)
VH: B1 VH
VL: B1 VL
modifications: SN-38 conjugated through Mc-VC-PAB-DMEDA-PEG linker by cysteine conjugation; DAR about 7.8 for the whole antibody; conjugated cysteines not named
notes: the constant regions that carry the conjugated cysteines are not; also called antibody-drug conjugate 1
B3: CD73 antibody-MP2-VC-PAB-DMEDA-PEG-SN38 (antibody, V domains shown)
VH: B1 VH
VL: B1 VL
modifications: SN-38 conjugated through MP2-VC-PAB-DMEDA-PEG linker by cysteine conjugation; DAR about 7.8 for the whole antibody; conjugated cysteines not named
notes: the constant regions that carry the conjugated cysteines are not; also called antibody-drug conjugate 2
B4: 900725 antibody (antibody, V domains shown)
VH: QVQLVQSGAEVKKPGASVKLSCKASGYTFTSYWIHWVRQAPGQGLEWIGMIHPNSGSTYYNEKFKGRATLTVDKSTSTAYMELSSLRSEDTAVYYCARYYGSDYEWYFDVWGQGTTVTVSS
VL: DIQMTQSPSSMSASVGDRVTITCKASQNVRTAVVWYQQKPGKAPKALIYLASNRHTGVPDRFSGSGSGTDFTLTISSLQPEDFATYFCLQHWNYPYTFGQGTKLEIK
notes: It was detected with anti-human IgG Fc; also called anti-CD73 antibody 900725
B5: BMS-986179 (antibody, human IgG1, kappa, L234A L235A, V domains shown)
VH: QVQLVESGGGVVQPGRSLRLSCAASGFTFSNYGMHWVRQAPGKGLEWVAVILYDGSNKYYPDSVKGRFTISRDNSKNTLYLQMNSLRAEDTAVYYCARGGSSWYPDSFDIWGQGTMVTVSS
VL: DIQMTQSPSSLSASVGDRVTITCRASQGISSWLAWYQQKPEKAPKSLIYAASSLQSGVPSRFSGSGSGTDFTLTISSLQPEDFATYYCQQYNSYPLTFGGGTKVEIKR
notes: also called CD73 positive control antibody BMS-986179

The binders below were run against T1, human CD73 protein (ACRO Biosystems, Cat. No. CD3-H52H7) (human, UniProt P21589 27-547) (assay: SPR (Biacore T200), antibody captured on protein A chip, CD73 as analyte, 1:1 model).
T1 construct: Bought protein; also called recombinant CD73 protein; soluble recombinant CD73 antigen protein
T1 sequence (looked up): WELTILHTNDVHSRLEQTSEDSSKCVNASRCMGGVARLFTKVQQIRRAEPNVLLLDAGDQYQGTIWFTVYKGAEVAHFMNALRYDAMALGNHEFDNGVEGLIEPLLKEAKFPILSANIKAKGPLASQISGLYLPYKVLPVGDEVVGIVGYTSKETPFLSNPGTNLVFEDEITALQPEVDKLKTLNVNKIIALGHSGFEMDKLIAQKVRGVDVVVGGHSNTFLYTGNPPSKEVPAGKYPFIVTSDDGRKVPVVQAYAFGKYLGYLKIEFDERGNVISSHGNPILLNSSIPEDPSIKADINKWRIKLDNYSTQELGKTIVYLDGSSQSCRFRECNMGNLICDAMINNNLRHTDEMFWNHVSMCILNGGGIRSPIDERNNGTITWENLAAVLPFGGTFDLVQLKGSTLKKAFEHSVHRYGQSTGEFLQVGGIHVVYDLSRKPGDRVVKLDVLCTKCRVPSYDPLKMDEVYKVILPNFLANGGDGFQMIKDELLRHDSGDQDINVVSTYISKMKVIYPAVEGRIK
Method: (§1) The binding kinetics of the antibody-drug conjugate 1 and the antibody-drug conjugate 2 prepared in Example 1 and the 900698 naked antibody with a human CD73 protein (manufacturer: ACRO Biosystems, Cat. No. CD3-H52H7) and a monkey CD73 protein (manufacturer: Novoprotein, Cat. No. CI21) were assayed using Biacore (GE, model: T200), with an assay buffer of HBS-EP+ (pH 7.4) and a protein A chip (manufacturer: GE, Cat. No. 29-1275-56).
(§2) The temperature for the sample compartment and the flow path was set to 25° C. The protein A chip captured each antigen-binding protein as a ligand, fixing about 100 RU. The human CD73 protein was diluted with the assay buffer to a series of concentrations of 50 nM, 25 nM, 12.5 nM, 6.25 nM, 3.12 nM, and 1.57 nM, serving as analytes, and the assay buffer was used as a 0 concentration control. At a flow rate of 30 μL/min, association was conducted for 120 s, and dissociation was conducted for 600 s. Glycine (10 mM, pH 1.5) was used for regeneration at a flow rate of 50 μL/min for 60 s in a multi-cycle kinetic assay. A 1:1 binding model was used, and the Fit Local mode was selected to determine the association rate constant (ka), dissociation rate constant (kd), and equilibrium dissociation constant (KD).
Binder B1 has a Kd of 0.711 nM, a koff of 0.000104 s⁻¹ and a kon of 147000 M⁻¹ s⁻¹. For B2, the Kd was 0.339 nM, the koff was 0.000129 s⁻¹ and the kon was 381000 M⁻¹ s⁻¹. With B3 the Kd was 0.354 nM, the koff was 0.000228 s⁻¹ and the kon was 643000 M⁻¹ s⁻¹.

What follows are binders tested against T2, monkey CD73 protein (Novoprotein, Cat. No. CI21) (monkey) in the same assay as above.
T2 construct: Bought protein
Method: as §1, §2
With B1 the Kd was 0.121 nM, the koff was 1.8e-05 s⁻¹ and the kon was 148000 M⁻¹ s⁻¹. Work on B2 yielded a Kd of 0.0349 nM, a koff of 1.92e-06 s⁻¹ and a kon of 55000 M⁻¹ s⁻¹. Binder B3 has a Kd of 0.252 nM, a koff of 0.000114 s⁻¹ and a kon of 454000 M⁻¹ s⁻¹.

What follows are binders tested against T3, CD73 on the surface of Calu6 cells (UniProt P21589 27-549) (assay: cell-based or functional assay).
T3 sequence (looked up): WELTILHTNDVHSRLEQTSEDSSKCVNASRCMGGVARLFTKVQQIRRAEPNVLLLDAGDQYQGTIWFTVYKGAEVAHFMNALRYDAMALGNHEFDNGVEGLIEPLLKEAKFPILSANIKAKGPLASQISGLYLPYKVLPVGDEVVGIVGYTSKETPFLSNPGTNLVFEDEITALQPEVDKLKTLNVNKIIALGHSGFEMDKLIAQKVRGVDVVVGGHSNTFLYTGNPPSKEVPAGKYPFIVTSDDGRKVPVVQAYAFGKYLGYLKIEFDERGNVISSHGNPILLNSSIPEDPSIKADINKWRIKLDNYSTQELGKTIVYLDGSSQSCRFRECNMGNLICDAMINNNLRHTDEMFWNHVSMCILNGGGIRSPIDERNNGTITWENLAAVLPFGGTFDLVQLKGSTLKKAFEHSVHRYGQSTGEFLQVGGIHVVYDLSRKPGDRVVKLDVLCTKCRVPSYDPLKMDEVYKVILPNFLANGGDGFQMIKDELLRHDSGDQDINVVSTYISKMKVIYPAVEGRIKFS
With B4 the Endocytosis efficiency (%) was 37.5% and the “fluorescence intensity of surface antibody after 5 h at 37° C. (flow cytometry, Calu6 cells)” value was 8710. For B5, the Endocytosis efficiency (%) was 44.2% and the “fluorescence intensity of surface antibody after 5 h at 37° C. (flow cytometry, Calu6 cells)” value was 14400. For B1, the Endocytosis efficiency (%) was 96.3% and the “fluorescence intensity of surface antibody after 5 h at 37° C. (flow cytometry, Calu6 cells)” value was 359.

What follows are binders tested against T4, human CD73 expressed on CHOK1-huCD73-3F4 cells (human, UniProt P21589 27-549) (assay: flow cytometry (PE-MFI, PE-goat anti-human-Fc) on CHOK1-huCD73-3F4 cells expressing human CD73; four-parameter fit table under the curves, unit from the concentration axis).
T4 construct: whole, on cells; also called cells expressing human CD73 (CHOK1-huCD73-3F4, Huabo Biopharm); CD73 antigen on the cell surface
T4 sequence (looked up): T3 sequence (looked up)
Method: The binding activity of the antibody-drug conjugate 1 and the antibody-drug conjugate 2 prepared in Example 1 and the 900698 naked antibody to cells expressing human CD73 (CHOK1-huCD73-3F4, Huabo Biopharm) was assayed.
All antigen-binding proteins were diluted to 30 μg/mL with a solution of 1% BSA in PBS (1% BSA/PBS), followed by a 3-fold dilution across 10 gradients. The diluted proteins were each added at 20 μL per well to a 96-well U-bottom plate, with a negative control (adding only 1% BSA/PBS) set up simultaneously. A suspension of cells expressing human CD73 (CHOK1-huCD73-3F4, Huabo Biopharm) in the logarithmic growth phase was taken and centrifuged (1000 rpm×5 min), and then the culture medium was discarded. The cells were resuspended in 1% BSA/PBS until the viable cell density was 1×10⁶ cells/mL, then added at 20 μL (2×10⁴ cells) per well to the 96-well U-bottom plate containing the anti-CD73 antigen-binding proteins, and incubated at room temperature for reaction for 30 min. The reacted cells in the 96-well U-bottom plate were resuspended in 1% BSA/PBS and centrifuged (300 g×3 min), and then the supernatant was discarded. This washing process was performed once. Then, a 1:200 dilution of PE-goat anti-human-Fc (Jackson ImmunoResearch, #109-115-098) was added, and the cells were incubated in the dark at room temperature for reaction for 15 min. The reacted cells in the 96-well U-bottom plate were further resuspended in 1% BSA/PBS and centrifuged (300 g×3 min), and then the supernatant was discarded. This washing process was performed 3 times. Finally, the cells were resuspended in 100 μL of 1% BSA/PBS per well, and the fluorescence intensity in the PE channel was detected using a flow cytometer (BD, #Canto II).
B1 gave an EC50 of 1.01 µg/mL. B2 gave an EC50 of 0.659 µg/mL. In the case of B3, the EC50 is reported as 0.67 µg/mL.

These binders were tested against T3, CD73 on the surface of Calu6 cells (assay: flow cytometry on Calu6 cells, antibody at 1 ug/mL, kept at 4 C, PE anti-human IgG Fc detection).
Method: The endocytosis efficiency of monoclonal antibodies 900698 and 900725 was compared through an endocytosis assay, with the procedures as follows: Anti-CD73 antigen-binding proteins such as the CD73 positive control antibody BMS-986179, 900698, and 900725 were diluted to 1 μg/mL with a PBS solution, with 2 replicate wells set up for each concentration. Calu6 cells in the logarithmic growth phase were taken and prepared into a cell suspension at 2× 10⁵ cells/mL. The cell suspension was then added at 100 μL (about 20000 cells) per well to a 96-well U-bottom plate and centrifuged at 300 g for 3 min, and then the supernatant was discarded. Then, the diluted antigen-binding proteins were each added at 100 μL/well to resuspend the cells, and the mixture was mixed uniformly and incubated at 4° C. for 30 min. After the incubation was completed, the mixture was centrifuged at 300 g for 3 min, and then the supernatant was discarded. The cells were then resuspended in 1% BSA, with half incubated at 37° C. and the other half at 4° C., for an incubation time of 5 h. After the incubation was completed, the wells corresponding to the specified time were removed. The cells in these wells were centrifuged at 300 g for 3 min, and then the supernatant was discarded. PE anti-hulgG Fc (1:200) was then added at 50 μL/well, and the mixture was mixed uniformly and allowed to react at 4° C. for 30 min. After the incubation was completed, the cells were washed twice and centrifuged at 300 g for 3 min, and the fluorescence intensity was detected by flow cytometry. The assay results for the endocytosis of CD73 on the cell surface induced by the anti-CD73 antigen-binding proteins are shown in Table 5 below and FIG. 9. […] 34%. In FIG. 9, the results for BMS-986179, 900725, and 900698 are represented as 1-3, respectively, and NC indicates the result for the condition that only a 1% BSA solution was added without any antibody or antibody-drug conjugate.
In the case of B4, the “fluorescence intensity at 4° C.” value is reported as 13900. For B5, the “fluorescence intensity at 4° C.” value was 25700. For B1, the “fluorescence intensity at 4° C.” value was 8940.

Biological target: T3, CD73 on the surface of Calu6 cells
Assay: cell-based or functional assay
Remark: another data set of the same source
In the case of B1, the “Endocytosis efficiency (%)” value is reported as 95.4%. In the case of B2, the “Endocytosis efficiency (%)” value is reported as 95.6%. With B3 the “Endocytosis efficiency (%)” value was 95.8%.

These binders were tested against T1, human CD73 protein (ACRO Biosystems, …) (assay: cell-based or functional assay).
With B1 the “IC50, inhibition of the enzymatic activity of recombinant CD73 (AMP/ATP, CellTiter-Glo signal)” value was 0.352 µg/mL. B2 was tested, and the “IC50, inhibition of the enzymatic activity of recombinant CD73 (AMP/ATP, CellTiter-Glo signal)” value was 0.587 µg/mL. In the case of B3, the “IC50, inhibition of the enzymatic activity of recombinant CD73 (AMP/ATP, CellTiter-Glo signal)” value is reported as 0.553 µg/mL.
